Results on 2 molecules are retold here after paper PMC10370059 (bioRxiv, 2023).

For assay [1], the target named is biotinylated Arr3_ΔC loaded with IP6 (bovine) (UniProt P32120). As to the kind of experiment: SEC.
In assay [2] the target is Arr3_ΔC (preactivated arrestin3, truncated after residue 392) (bovine, UniProt P32120). As to the kind of experiment: pull-down.
Assay [3] addresses biotinylated Arr3_ΔC loaded with IP6 (bovine, UniProt P32120, biotin (sulfo-NHS-Biotin, >95% biotinylated)). As to the kind of experiment: ELISA. For orientation: An ELISA detects its analyte on a solid surface through an enzyme-linked reagent.

Molecule “biotinylated Arr3_ΔC loaded with IP6 (from UniProt P32120 1-392) (domain or fragment)” gave a stoichiometry N in assay [1] of 3.

B1: Fab7 (Fab, V domains shown)
VH: EVQLVESGGGLVQPGGSLRLSCAASGFNVSSSYIHWVRQAPGKGLEWVASISSYYGYTYYADSVKGRFTISADTSKNTAYLQMNSLRAEDTAVYYCARKSMYHRGWGWLSWVYGAMDYWGQGTLVTVSS
VL: DIQMTQSPSSLSASVGDRVTITCRASQSVSSAVAWYQQKPGKAPKLLIYSASSLYSGVPSRFSGSRSGTDFTLTISSLQPEDFATYYCQQSYYYPITFGQGTKVEIK
For the molecule B1, the binding result in assay [2] and in assay [3] was “binds” in each case.

As usually defined, the stoichiometry N is the number of molecules, sites or subunits per partner or assembly.
